According to the nanobody polyreactivity screen of Harvey et al. (2022):

Assay: yeast display, Sf9 membrane polyspecificity reagent, FACS + sequencing; frameworks hold sequencing errors
Outline: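 Nanobodies from a synthetic yeast display library (Saccharomyces cerevisiae BJ5465), induced 36–48 hours with galactose, were stained 1 hour at 4 °C with 10% biotinylated, detergent-solubilized Sf9 membrane reagent, enriched on streptavidin microbeads, then FACS-sorted. Anti-HA (expression) and streptavidin (reagent binding) fluorescence set low and high (top ~1%) gates. Polyreactivity labels come from the gate of origin. Genes were colony-PCR amplified, MiSeq 2 × 250 sequenced and filtered by CDR length.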

Row | Sequence | polyreactivity (PSR sort gate)
1 | QVQLVESGGGLVQAGGSLRLSCAASGSIFWYNAMGWYRQAPGKERELVAAITSGGTTSYADSVKGRFTISRDNAKNTVYLQMNSLKPEDTAVYYCAKDWNDDQHSWDTPFDYWGQGTQVTVSS | low polyreactivity
2 | QVQLVESGGGLVQARGSLRLSCAASGSIFGKNVMGWYRQAPGKERELVAAISRSGGRTYYADSVKGRFTISRDNAKNTVYLQMNSLKPEDTAVYYCAADGQPIGQQTYDYWGQGTQVTVSS | high polyreactivity
3 | QVQLVESGGGLVQAGGSLRLSCAASGRIFGYYAMGWYRQAPGKERELVARITKTVGGTYYADSVKGRFTISRDNAKNTVYLQMNSLKPEDTAVYYCAARVWTGNGRSKGAYDYWGQGTQVTVSS | high polyreactivity
4 | QVQLVESGGGLDQAGCSLRLSCAASGRIFPYMGWYRQAPGKDRELVAAINASGGRTYYADSVKGRFTISRDNAKNTVYLQMNSLKPEDTAVYYCNAVWSSDTYTHPQYDYWGQGTQVTVSS | high polyreactivity
5 | QVQLVESGGGLVQARGSLRLSCAASGLTVGYNAMGWYRQARVKEWELVGAISSNGGRTYYADSVKGRFTISRDNAKNTVYLQMNSLKPEDTAVYYCNARYTGSSLYYWGQGTQVTVSS | high polyreactivity
6 | QVQLVESGGGLVQAGGSLRLSCAASGRTFRTNAMGWYRQAPGKERELVAAITSDGTYYADSVKGRFTISRDNAKKTVYLQMNSLKPEDTAVYYCNVDDRETRDDYWGQGTQVTVSS | low polyreactivity
7 | QVQLVESGGGLVQAGGSLRLSCAASGSTFYLYGMGWYRQAPGKERELVAAITYSGGSTYYADSVKGRFTISRDNAKNTVYLQMNSLKPEDTAVYYCNARSQWRSSRFYYWGQGTQVTVPS | high polyreactivity
8 | QVQLVESGGGLVQAGGSLRLTCAASGTIFVRLDMGWYRQAPGNEREFVATIGSGSSTYYADSVKGSFTISRDNVKNTVYLQMNSLKPEDTAVYYCAVSAAEQSRHYYWDQGTQVTVSS | low polyreactivity
9 | QVQLVESGGGLVQAGGSLRLSCAASGITFFFNAMGWYRQAPGKERELVAAITSGAGSTYYADSVKGRFTISRDNAKITVYLQMNSLKPEDTAVYYCASEWSYGGMDYWGQGTQVNVSS | low polyreactivity
10 | QVQLVESGGGLVQAGGSLRLSCAASGSIFYYYAMGWYRQAPGKERELVAAISYGGTRTYYADSVKGRFTISRDNAKNTVYLQMNSLKPEDTAVYYCAASQYSFKGRDYDYWGQGTQVTVSS | low polyreactivity
11 | QVQLVESGGGLVQAGGSLRLSCAASGFIYSGYAIGCYRQAPAKERELVDTNSGSGGSTYYADSVKGRFTISRDNAKNTVYLKMNSLKTEDTAVYYCAARQRGGYGYWGQGTQVTESS | high polyreactivity
12 | QVQLVESGGGLVQAGGSLRLSCAASGRTFVDYDMGWYRQAPGKERELVADINSGGSTYYADSVKGRFTISRDNAKNTVYLQMNSQKPEDTAVYDCAVRSRGTAPQYYYWGQGTQVTVSS | high polyreactivity
13 | QVQLVESGGGLVQAGGSLRLSCAASGRTFYTNAMGWYRQAPGKERELVAGISWGDGNTYYADSVKGRFTISRDNAKNTVYLQMNSLKPEDTAVYYCAVTYIILWSYSHTEFDYWGQGNQVTVSS | low polyreactivity
14 | QVQLVESGGGLVQAGGILLLSCAASGSIFKPYAMGWYTQAPGKERELVAAISKRGGSTSYADSVKGRFTISRDNAKNSVYLQMNSLKPEDTAVYYCAAVAAFSGLSWYDYWGLGTQVTVSS | high polyreactivity
15 | QVQLVESGGGLVQAGGSLRLSCAAAGLISIRILMGWYRQAPGKERELVAGITSTGSTSYADSVKGRFTSSRDNAKNTVYLQMNSLKPEDTAVYYCNTKGSRPGIWPTTSGYWGHGTQVTVSS | high polyreactivity
16 | HVELVQSCGGLVQAGGSLRLSSAASGRIFSPYVMGWFRQAPGKVRQLVAASRNRGGSTYYAAAVKWRFTISRDNATNTVYIQMNSLKPEDTAVYYCNAPDVSRPLRGRYDYWGQGTQVTVSS | high polyreactivity
17 | QVQLVESGGGLVQAGGSLRLSCAASGSTFDENAMGWYRQAPGKERELVAVISDSGGSTYYADSVKGRFTISRDNAKNTVDLQMNSLKPEVTAVYYCAKDVPPEYPTSSYDYWGQGTQVTVSS | low polyreactivity
18 | QVQLVESGRGLVQAGGSLRLSCAASGITFTGYAMGWYRQAPGKERELVAASTSGGSTTYADSVKGRFTISRDNAKNTVYLQMNSQKPEDTAVYYCGARTADYSTAEYDYWGQGTQLTVSS | low polyreactivity
19 | QVQLVESGGGLVQAGGRLRISCAASGSIFYLYARGWYRQAPGKERELVPVITGSGGSTYYADSVKGRFTISRDNSKYTVYLQMNSLKPVDTAVYYGAADYYWGYDWGQGTQVTVSS | low polyreactivity
20 | QVQLVESGGGLVQAGGSLRLSCAASGSIFTGYAMGWYRQAPGKERELVARITKRGGSTYYADSVKGRFTISRDNAKNTVYLQMNSLKPEDTAVYYCNADRKFPYGSYETHDYWGQGTQVTVSS | high polyreactivity
21 | QVQLVESGGGLVQAGGSLRLSCDASGFIFYYYDMGWYRQAPGKERELVASIDNGGDTNYADSVKGRFTISLDNAKNTVYLQMNSLKPEDTAVYYCAAPYSPLWYPGGDYWRQGTQVTVSS | low polyreactivity
